Results published in publication PMC9665845.

Biological target: human Kap-β2/Transportin-1 (TNPO1), GST tag removed (human) (UniProt Q92973)
Chain of UniProt Q92973 (Q92973 whole entry): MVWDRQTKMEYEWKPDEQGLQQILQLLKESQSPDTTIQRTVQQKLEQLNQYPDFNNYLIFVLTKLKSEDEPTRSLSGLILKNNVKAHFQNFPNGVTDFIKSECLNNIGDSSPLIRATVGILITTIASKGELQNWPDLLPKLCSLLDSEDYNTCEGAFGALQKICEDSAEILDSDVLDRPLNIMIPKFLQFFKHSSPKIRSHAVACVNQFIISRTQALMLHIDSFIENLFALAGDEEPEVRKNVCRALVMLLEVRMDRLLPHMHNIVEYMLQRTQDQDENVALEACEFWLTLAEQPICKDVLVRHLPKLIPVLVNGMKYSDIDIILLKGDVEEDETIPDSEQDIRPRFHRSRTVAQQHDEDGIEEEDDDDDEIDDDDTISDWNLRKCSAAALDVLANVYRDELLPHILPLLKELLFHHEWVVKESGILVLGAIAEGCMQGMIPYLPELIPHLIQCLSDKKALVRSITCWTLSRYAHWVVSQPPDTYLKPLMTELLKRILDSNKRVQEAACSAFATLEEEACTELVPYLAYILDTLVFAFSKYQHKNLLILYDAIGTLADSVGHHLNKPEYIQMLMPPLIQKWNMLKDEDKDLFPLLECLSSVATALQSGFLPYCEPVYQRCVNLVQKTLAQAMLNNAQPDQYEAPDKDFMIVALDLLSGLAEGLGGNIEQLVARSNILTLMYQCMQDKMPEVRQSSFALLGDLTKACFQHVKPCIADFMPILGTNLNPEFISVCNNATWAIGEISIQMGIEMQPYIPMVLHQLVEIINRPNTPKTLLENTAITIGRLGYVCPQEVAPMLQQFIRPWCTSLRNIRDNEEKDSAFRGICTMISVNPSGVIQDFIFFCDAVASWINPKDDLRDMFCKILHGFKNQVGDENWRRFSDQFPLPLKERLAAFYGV

| Binder | percent reduction of TCF/LEF luciferase activity in 3T3 mouse fibroblast reporter cells activated by human β-catenin-GFP | percent reduction of TCF/LEF luciferase activity in 3T3 mouse fibroblast reporter cells activated by human β-catenin-GFP; blocks TNPO1 with β-catenin |
| --- | --- | --- |
| GGSYNDFGNYNNQSSNAAAAKGGNFGGAFEAAANPTKR [M9M-A peptide] | 24% | – |
| GGSYNDFGNYNNQSSNFGPMKGGNFGGRFEPYANPTKR [M9M peptide] | – | 45% |
